Assay results taken from patent publication US20060026702A1, “Phosphoinositide 3-kinase mediated inhibition of GPCRs” (DUKE UNIVERSITY, priority 2002, published 2006).

Molecular target: T1, βARK1 (Bos taurus, UniProt P21146)
T1 construct: gift from Dr. Robert Lefkowitz
T1 sequence (P21146 1-689): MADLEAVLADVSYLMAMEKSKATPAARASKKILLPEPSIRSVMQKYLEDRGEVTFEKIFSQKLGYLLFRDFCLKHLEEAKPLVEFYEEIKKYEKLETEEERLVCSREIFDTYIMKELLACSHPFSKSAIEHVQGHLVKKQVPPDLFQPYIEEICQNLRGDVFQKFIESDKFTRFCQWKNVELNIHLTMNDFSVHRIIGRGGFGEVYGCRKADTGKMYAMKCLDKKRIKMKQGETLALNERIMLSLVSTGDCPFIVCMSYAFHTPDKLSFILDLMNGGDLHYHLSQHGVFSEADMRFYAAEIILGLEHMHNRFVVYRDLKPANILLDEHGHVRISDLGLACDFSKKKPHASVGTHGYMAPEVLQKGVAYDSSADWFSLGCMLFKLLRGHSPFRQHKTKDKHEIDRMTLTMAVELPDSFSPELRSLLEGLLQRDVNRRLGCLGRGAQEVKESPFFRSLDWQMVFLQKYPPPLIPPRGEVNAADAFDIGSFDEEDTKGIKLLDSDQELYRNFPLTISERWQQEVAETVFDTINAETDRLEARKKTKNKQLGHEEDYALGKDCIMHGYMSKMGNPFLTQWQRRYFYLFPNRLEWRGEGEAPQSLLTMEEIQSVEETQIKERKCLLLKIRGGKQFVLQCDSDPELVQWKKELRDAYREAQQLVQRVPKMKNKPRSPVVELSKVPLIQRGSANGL
Assay: Co-immunoprecipitation and GST pull-down with purified βARK1
Type: binding
Conditions: immunoprecipitated FLAG-HEAT or PI3KΔHEAT-HA
Protocol: GST Fusion Protein Expression and Pull-down Experiments—Plasmid DNAs were transformed in Escherichia coli BL21 cells. Overnight cultures were grown in LB medium supplemented with ampicillin (100 μg/ml), diluted to an A600 of 0.2 in the same medium and grown for another 1 hr at 37° C. Cultured cells were then induced with 0.1 mM isopropyl-1-thio-β-D-galactopyranoside for 2 hr. Cell were then pelleted, washed once with 1× phosphate-buffered saline and resuspended in 1× phosphate-buffered saline containing 1 mM phenylmethylsulfonyl fluoride, 2 mg/ml lysozyme and incubated for 15 min on ice. Cells were lysed by adding Triton X-100 1%. Solublized cells were incubated with DNase (300 units) for 15 min on ice and centrifuged at 13,000 rpm for 10 min.
Glutathione-Sepharose beads were added to the supernatant and gently agitated at 4° C. for 2 hr. Beads were washed three times with ice cold 1×PBS containing 1% Triton X-100 followed by three washes with cold PBS without detergent. Protein concentration was determined using a DC protein assay kit (Bio Rad), and the integrity of the fusion protein was analyzed by SDS-polyacrylamide gel electrophoresis and Coomassie staining.
The beads were spun and washed three times with binding buffer followed by three washes with binding buffer without detergent. The beads were resuspended in SDS gel loading buffer and resolved by gel electrophoresis, immunblotting and detection was carried out described later.
FLAG-HEAT and PI3KΔHEAT proteins were immunoprecipitated from cell extracts using monoclonal FLAG and HA antibodies respectively, fractionated by SDS-PAGE and analyzed by immunoblotting with βARK1 monoclonal antibody. […] Levels of expression of HEAT and PI3KΔHEAT proteins were similar (FIG. 8B, lower panel).
To investigate whether there was a direct physical interaction between the HEAT domain of PI3K and βARK1, GST-HEAT fusion protein containing 535-732 amino acid residues of PI3Kγ was produced, which including the entire HEAT domain and flanking upstream 10 amino acids and downstream 7 amino acids. […]

B1: HEAT: 197 amino acid HEAT domain of PI3Kγ, FLAG epitope-tagged (SEQ ID NO: 2), overexpressed in cells (protein, listed as Homo sapiens)
chain: MDYKDDDDKHPIALPKHQPTPDDRVRAEMPNQLRKQLEAIIATDTAEDKELLWHFRYESLKHPKAYPKLFSSVKWGQQEIVAKTYQLLARREVWDQSALDVGLTMQLLDCNFSDENVRAIAVQKLESLEDDDVLHYLLQLVQAVKFEPYHDSALARFLLKRGLRNKRIGHFLFWFLRSEIAQSRHYQQRFAVILEAYLRGCGTA
modifications: FLAG tag
association with purified βARK1 (immune complexes from HEK 293 extracts): found to associate
